Assay results from doi:10.1101/2020.12.18.423546 (bioRxiv, 2020).

Tests used:
cross-linking = target: the molecule itself; experiment: cross-linking
SEC-MALS = target: the molecule itself; experiment: SEC-MALS

B1: Bax (α2-α5) (human Bax residues D53 to K128 with C62S and C126S mutations) (domain or fragment)
chain: DASTKKLSESLKRIGDELDSNMELQRMIAAVDTDSPREVFFRVAADMFSDGNFNWGRVVALFYFASKLVLKALSTK
cross-linking
  stoichiometry N: 2
SEC-MALS
  stoichiometry N: 4
